These results are taken from patent US20220098591, “STEM-LOOP COMPOSITIONS AND METHODS FOR INHIBITING VASCULAR ENDOTHELIAL GROWTN FACTOR” (DRIVE THERAPEUTICS LLC, published 2022).

Data set [1] concerns the target T1, VEGF-A165 (Homo sapiens).
T1 chain: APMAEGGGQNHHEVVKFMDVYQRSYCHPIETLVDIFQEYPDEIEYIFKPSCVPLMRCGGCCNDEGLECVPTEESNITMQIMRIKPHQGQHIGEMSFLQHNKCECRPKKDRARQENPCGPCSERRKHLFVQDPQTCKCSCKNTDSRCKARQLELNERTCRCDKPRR
As to the kind of experiment: SPR; HBD-binding aptamer. The settings on record: tags: glycan-biotinylated for SPR/FRET/AlphaLISA; Acro BioSystems, R&D Systems; chain copies: 2 (inferred). The procedure: (§1) Aptamer 26 was identical in sequence to Aptamer 4.2 but contained a hexylamine linker in place of the C6 disulfide linker at the 5′ terminus. […] Briefly, in the SPR studies, 1.0-2.5 μg/mL of glycan biotinylated VEGF-A₁₆₅, VEGF-A₁₂₁, and VEGF-A₁₁₀ were diluted in HEPES running buffer (10 mM HEPES, 137.5 mM NaCl, 5.7 mM KCl, 1 mM MgCl₂, 1 mM CaCl₂, and 0.05% Tween20; pH 7.4) and immobilized to a streptavidin dextran chip (GE Healthcare Life Sciences) for 1-2 minutes. The chip was then blocked with 0.2 mg/mL biotin in running buffer, followed by 3 cycles of buffer blanks and regenerated with 50 mM NaOH to equilibrate the chip. […] After coating and blocking, samples were screened at 100 nM in duplicate injections at a flow rate of 25 μL/min, with an association time of 3 minutes 20 seconds and a dissociation time of 10 minutes. Regeneration conditions of chips were optimized based on the protein immobilized and effected with either 50 mM NaOH for 30 seconds or 2M guanidine HCl for 2×40 seconds.
(§2) Data was fit to a 1:1 kinetic binding model.

The target of data set [2] is T1, VEGF-A165. Kind of data set: cell_activity; partial (~80%) inhibition of KDR phosphorylation; no inhibition of KDR binding in AlphaLISA. The settings on record: tags: glycan-biotinylated for SPR/FRET/AlphaLISA; Acro BioSystems, R&D Systems; chain copies: 2 (inferred). The protocol:
Briefly, HEK293 cells engineered to stably overexpress KDR were plated overnight in collagen coated 96 well plates at 50 k cells/well. Aptamers in SB1+ (40 mM HEPES, pH 7.5, 125 mM NaCl, 5 mM KCl, 1 mM MgCl₂) were heated to 90° C. for 3 minutes and allowed to cool to room temperature for a minimum of 10 minutes. […] 15 μL of VEGF-A was added to 15 μL titrated aptamer in a polypropylene plate and diluted to 300 μL with TS buffer (10 mM Tris pH 7.5; 100 mM NaCl; 5.7 mM KCl; 1 mM MgCl₂; 1 mM CaCl₂). The aptamer/VEGF-A mixture was incubated at 37° C. for 30 minutes, after which 100 μL was added to the cells for 5 minutes at 37° C. in 5% CO₂. Treatments were aspirated from cells, and cells were lysed with 100 μL cold lysis buffer [20 mM Tris-HCl, pH 7.5, 150 mM NaCl, 1 mM EDTA, 1% Triton X-100, 0.5 mM sodium orthovanadate (freshly prepared), 1 mM PMSF (freshly prepared), lx protease inhibitor cocktail (freshly prepared)] on ice for 10 minutes. […]
To perform the AlphaLISA® assay, 10 μL of cell lysis was transferred to a white low volume 384 well Optiplate (Perkin Elmer). […] The assay plate was sealed and incubated in the dark for approximately 2 hours, then was read on a Biotek CYTATION™ 5 plate reader using the Alpha 384 well optical cube. Percent inhibition was calculated by subtracting TS buffer background from each value and normalizing to VEGF-A only controls. […]
A general note: Alpha assays give light when donor and acceptor beads are brought close together.

Data set [3] deals with T2, VEGF-A121 (Homo sapiens, UniProt P15692 SEQ:1-121). Kind of data set: SPR; no binding at highest concentration (500 nM). As to conditions: tags: glycan-biotinylated for SPR/FRET/AlphaLISA; Acro BioSystems, Biolegend; chain copies: 2 (stated). The protocol: as §1, §2
Background: Surface plasmon resonance follows binding to a sensor surface in real time, without labels.

Data set [4] addresses T3, VEGF-A110 (Homo sapiens, UniProt P15692 SEQ:1-110). As to the kind of experiment: SPR; no binding at highest concentration (500 nM). As to conditions: tags: glycan-biotinylated; chain copies: 2 (stated). The protocol: as §1, §2
In data set [5] the target is T1, VEGF-A165. As to the kind of experiment: direct TR-FRET, MOPS pH 7.4, 1 mM CaCl2, 1 mM MgCl2, RT. The settings on record: tags: glycan-biotinylated for SPR/FRET/AlphaLISA; Acro BioSystems, R&D Systems; chain copies: 2 (inferred); stem-loop.
For data set [6], the target named is T1, VEGF-A165. Kind of data set: competition; AlphaLISA, blocks KDR binding. As to conditions: tags: glycan-biotinylated for SPR/FRET/AlphaLISA; Acro BioSystems, R&D Systems; chain copies: 2 (inferred); stem-loop.
Method: Briefly, the aptamers were heated at 90° C. for 3 minutes and allowed to cool to room temperature for a minimum of 10 minutes. Aptamers and anti-VEGF-A antibody were serial diluted in a polypropylene plate and 5 μL was transferred to a white low volume 384 well Optiplate (Perkin Elmer). A solution of VEGF-A₁₆₅ (Acro BioSystems) or VEGF-A₁₂₁ (Acro BioSystems) that was glycan biotinylated was prepared and added to the assay plate containing aptamers or anti-VEGF-A antibody to yield a final assay concentration of 2 nM. A mixture of human recombinant his-tagged KDR, (Sino Biological), AlphaLISA® nickel chelate acceptor beads (Perkin Elmer), and AlphaScreen® streptavidin donor beads (Perkin Elmer) was then prepared and 10 μL was added to the assay plate. The final concentrations of KDR and beads were 5 nM and 5 ug/mL, respectively. The assay plate was sealed and incubated in the dark for approximately 2 hours, after which it was read on a Biotek CYTATION™ 5 plate reader using the Alpha 384 well optical cube. The low signal control was determined using excess anti-VEGF-A inhibitor and the high signal control was determined by buffer only.
The mechanism of action of lead aptamers was characterized by interrogating their ability to inhibit the VEGF-A:KDR interaction with both VEGF-A₁₆₅ and VEGF-A₁₂₁.
Data set [7] addresses T1, VEGF-A165. Kind of data set: SPR; HEPES pH 7.4, 137.5 mM NaCl, 1 mM MgCl2, 1 mM CaCl2. As to conditions: tags: glycan-biotinylated for SPR/FRET/AlphaLISA; Acro BioSystems, R&D Systems; chain copies: 2 (inferred); stem-loop. The procedure:
as §1, §2

Data set [8] addresses T2, VEGF-A121. As to the kind of experiment: competition; AlphaLISA, blocks KDR binding. The settings on record: tags: glycan-biotinylated for SPR/FRET/AlphaLISA; Acro BioSystems, Biolegend; chain copies: 2 (stated); stem-loop.
Target sequence in this assay (P15692 other isoform, or with tags, fused parts or gaps): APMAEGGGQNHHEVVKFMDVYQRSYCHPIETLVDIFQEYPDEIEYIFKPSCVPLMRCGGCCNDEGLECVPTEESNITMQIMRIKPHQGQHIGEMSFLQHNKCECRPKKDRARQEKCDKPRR
Data set [9] concerns the target T2, VEGF-A121. As to the kind of experiment: direct TR-FRET, RT; error not given. As to conditions: tags: glycan-biotinylated for SPR/FRET/AlphaLISA; Acro BioSystems, Biolegend; chain copies: 2 (stated); stem-loop. The procedure:
(§3) Briefly, ALEXA FLUOR® 647-labeled aptamers were heated to 90° C. for 3 minutes and cooled to room temperature. Titrations of ALEXA FLUOR® 647-labeled aptamers and ALEXA FLUOR® 647-labeled anti-VEGF-A antibody were made in TR-FRET buffer (50 mM MOPS, pH 7.4, 125 mM NaCl, 5 mM KCl, 50 μM CHAPS, 0.1 mg/mL BSA, 1 mM CaCl₂, and 1 mM MgCl₂) in a polypropylene plate. 5 μL of aptamers or antibody were transferred to the black wall low volume 384 well assay plate (Greiner), followed by 5 μL glycan biotinylated VEGF-A₁₂₁ (2.5 nM final), and 5 μL Streptavidin-Eu (Perkin Elmer; 2.5 nM final). The plate was covered with a plate seal and subsequently incubated in the dark for 2 hours at room temperature. The plate was read on a Biotek CYTATION™ 5 plate reader. Samples were excited at 330 nm and fluorescent values were collected at 665 nm.
(§4) No protein background fluorescent values were averaged and subtracted from test compounds, with data normalized as a fold change to highest concentrations of aptamers and antibody. These values were fit using a four-parameter non-linear fit in GraphPad Prism Version 7.0.
Background: Time-resolved FRET reads energy transfer from a long-lived donor to a nearby acceptor.

Data set [10] has as its target T2, VEGF-A121. Kind of data set: SPR; HEPES pH 7.4, 1 mM MgCl2, 1 mM CaCl2. The settings on record: tags: glycan-biotinylated for SPR/FRET/AlphaLISA; Acro BioSystems, Biolegend; chain copies: 2 (stated); stem-loop. The protocol: as §1, §2
For data set [11], the target named is T3, VEGF-A110. Kind of data set: SPR; HEPES pH 7.4, 1 mM MgCl2, 1 mM CaCl2. The settings on record: tags: glycan-biotinylated; chain copies: 2 (stated); stem-loop. The procedure: as §1, §2
Data set [12] deals with T2, VEGF-A121. Kind of data set: competition; TR-FRET; also no pKDR inhibition at 100 nM. The settings on record: tags: glycan-biotinylated for SPR/FRET/AlphaLISA; Acro BioSystems, Biolegend; chain copies: 2 (stated). The procedure:
Briefly, for competition TR-FRET, 2-fold dilutions of thermally equilibrated aptamers were made in TR-FRET Buffer (50 mM MOPS, pH 7.4, 125 mM NaCl, 5 mM KCl, 50 μM CHAPS, 0.1 mg/mL BSA, 1 mM CaCl₂, and 1 mM MgCl₂). 5 μL of aptamer or control solution was added to a 15 μL mix of glycan biotinylated […] (5 nM final), ALEXA FLUOR® 647-labeled Aptamer (30 nM final), and Streptavidin-Eu (Perkin Elmer; 2.5 nM final) in a black wall low volume 384 well plate (Greiner). For control, 5 μl of 1000-fold excess of unlabeled parent aptamer or 5 μl TR-FRET buffer alone was added to the mix of ALEXA FLUOR® 647-labeled aptamer, biotin-VEGF-A, and Streptavidin-Eu. The plate was covered with a plate seal and subsequently incubated in the dark for 1 hour at room temperature. The plate was read on a Biotek CYTATION™ 5 plate reader. Samples were excited at 330 nm and fluorescent values were collected at 665 nm. Data analysis was performed by subtracting the background value and plotting as percent inhibition, normalized to baseline in the absence of competitor. The values were fit by [Inhibitor] vs. response-Variable slope (four parameters) using GraphPad Prism Version 7.0 and then normalized to aptamer control to obtain an IC₅₀ relative to parent aptamer. Data is presented as log values of relative IC₅₀. […]

For data set [13], the target named is T1, VEGF-A165. Kind of data set: competition; AlphaLISA, blocks KDR binding; limited by VEGF-A concentration. The settings on record: tags: glycan-biotinylated for SPR/FRET/AlphaLISA; Acro BioSystems, R&D Systems; chain copies: 2 (inferred); stem-loop.
Data set [14] concerns the target T2, VEGF-A121. As to the kind of experiment: direct TR-FRET, RT. The settings on record: tags: glycan-biotinylated for SPR/FRET/AlphaLISA; Acro BioSystems, Biolegend; chain copies: 2 (stated); stem-loop. The procedure: as §3, §4
The target of data set [15] is T1, VEGF-A165. Kind of data set: direct TR-FRET, RT; limited by VEGF-A concentration. The settings on record: tags: glycan-biotinylated for SPR/FRET/AlphaLISA; Acro BioSystems, R&D Systems; chain copies: 2 (inferred); stem-loop.

B1: Aptamer 7 (ssRNA)
RNA: CGGAAUCAGUGAAUGCUUAUACAUCCG
modifications: 2'-F C and U; 2'-OMe G and A except AA at positions 4-5; 5' C6NH2; 3' idT
One may read the Kd as a measure of binding affinity in units of concentration. A lower Kd goes with tighter binding. One may read the IC50 as the concentration needed to halve the response being measured. In data set [1], B1 returned a dissociation constant Kd of 0.6 nM. For the same molecule, the IC50 in data set [2] came out at 2.2 nM. Moreover, the binding result in data set [3] and in data set [4] was “no binding” in each case.

B2: Aptamer 26 (ssRNA)
RNA: UAGGCCGCCUCCGCGCGGAGGGGUUUCAUUAUCCCGUUUGGCGGCUUU
modifications: all G 2'-F; all A,C,U 2'-OMe; 5' C6NH2; 3' idT (Tables 14-16 print it without the terminal U residues)
Consider B2, for which the Kd in data set [5] amounted to 4 nM; in data set [7], 0.5 nM; in data set [9], 46 nM; in data set [10], 4.6 nM; in data set [11], 9.9 nM. Moreover, the IC50 in data set [6] was 3.7 nM; in data set [8], 19 nM.

B3: Aptamer 27 (ssRNA)
RNA: UAGGCCGCCUCCGCGCGGGGGGGUUUCAUUAUCCCGUUUGGCGGCUUU
modifications: all G 2'-F; A,C,U 2'-OMe; 5' C6NH2; 3' idT
Take B3: the binding signal in data set [12] is > 100 fold worse IC50 vs Aptamer 26.

B4: Aptamer 141 (ssRNA)
RNA: AGGCCGACCCGCGCGGAGGGGUUUCAUUAUCCCGUUUGUCGGCUU
modifications: all G 2'-F; A,C,U 2'-OMe; Sp3 joins the two parts (position 9); 5' C6NH2; 3' idT
B4: the values for the IC50 in data set [8] and in [13] were 3.2 nM and 0.81 nM, respectively. For the same molecule, the Kd was 4.3 nM in [14] and 1.2 nM in data set [15].
